Test results published in patent US20220298218A1 (ANTAG THERAPEUTICS, published 2022).
Read-outs that look alike come from different tables or passages of the source. Where no end group is shown, it is not given here. The star is where a group is joined. C16 diacid = O=C(O)CCCCCCCCCCCCCCC(=O)*

B1: AT451 (peptide)
peptide: EGTFISDYSIAMDKIK(C16 diacid)QQDFVNWLLAQKGKKNDWK-OH
modifications: N-terminus assumed
SMILES: CC[C@H](C)[C@H](NC(=O)[C@H](CO)NC(=O)[C@H](Cc1ccc(O)cc1)NC(=O)[C@H](CC(=O)O)NC(=O)[C@H](CO)NC(=O)[C@@H](NC(=O)[C@H](Cc1ccccc1)NC(=O)[C@@H](NC(=O)CNC(=O)[C@@H](N)CCC(=O)O)[C@@H](C)O)[C@@H](C)CC)C(=O)N[C@@H](C)C(=O)N[C@@H](CCSC)C(=O)N[C@@H](CC(=O)O)C(=O)N[C@@H](CCCCN)C(=O)N[C@H](C(=O)N[C@@H](CCCCNC(=O)CCCCCCCCCCCCCCC(=O)O)C(=O)N[C@@H](CCC(N)=O)C(=O)N[C@@H](CCC(N)=O)C(=O)N[C@@H](CC(=O)O)C(=O)N[C@@H](Cc1ccccc1)C(=O)N[C@H](C(=O)N[C@@H](CC(N)=O)C(=O)N[C@@H](Cc1c[nH]c2ccccc12)C(=O)N[C@@H](CC(C)C)C(=O)N[C@@H](CC(C)C)C(=O)N[C@@H](C)C(=O)N[C@@H](CCC(N)=O)C(=O)N[C@@H](CCCCN)C(=O)NCC(=O)N[C@@H](CCCCN)C(=O)N[C@@H](CCCCN)C(=O)N[C@@H](CC(N)=O)C(=O)N[C@@H](CC(=O)O)C(=O)N[C@@H](Cc1c[nH]c2ccccc12)C(=O)N[C@@H](CCCCN)C(=O)O)C(C)C)[C@@H](C)CC
B2: AT453 (peptide)
peptide: EGTFISDYSIAMDKIK(C16 diacid)QQDFVNWLLAQKGKKNDWKHNI-OH
modifications: N-terminus assumed
SMILES: CC[C@H](C)[C@H](NC(=O)[C@H](CC(N)=O)NC(=O)[C@H](Cc1c[nH]cn1)NC(=O)[C@H](CCCCN)NC(=O)[C@H](Cc1c[nH]c2ccccc12)NC(=O)[C@H](CC(=O)O)NC(=O)[C@H](CC(N)=O)NC(=O)[C@H](CCCCN)NC(=O)[C@H](CCCCN)NC(=O)CNC(=O)[C@H](CCCCN)NC(=O)[C@H](CCC(N)=O)NC(=O)[C@H](C)NC(=O)[C@H](CC(C)C)NC(=O)[C@H](CC(C)C)NC(=O)[C@H](Cc1c[nH]c2ccccc12)NC(=O)[C@H](CC(N)=O)NC(=O)[C@@H](NC(=O)[C@H](Cc1ccccc1)NC(=O)[C@H](CC(=O)O)NC(=O)[C@H](CCC(N)=O)NC(=O)[C@H](CCC(N)=O)NC(=O)[C@H](CCCCNC(=O)CCCCCCCCCCCCCCC(=O)O)NC(=O)[C@@H](NC(=O)[C@H](CCCCN)NC(=O)[C@H](CC(=O)O)NC(=O)[C@H](CCSC)NC(=O)[C@H](C)NC(=O)[C@@H](NC(=O)[C@H](CO)NC(=O)[C@H](Cc1ccc(O)cc1)NC(=O)[C@H](CC(=O)O)NC(=O)[C@H](CO)NC(=O)[C@@H](NC(=O)[C@H](Cc1ccccc1)NC(=O)[C@@H](NC(=O)CNC(=O)[C@@H](N)CCC(=O)O)[C@@H](C)O)[C@@H](C)CC)[C@@H](C)CC)[C@@H](C)CC)C(C)C)C(=O)O
B3: AT454 (peptide)
peptide: EGTFISDYSIAMDKIK(C16 diacid)QQDFVNWLLAQKGKKNDWKHNIT-OH
modifications: N-terminus assumed
SMILES: CC[C@H](C)[C@H](NC(=O)[C@H](CO)NC(=O)[C@H](Cc1ccc(O)cc1)NC(=O)[C@H](CC(=O)O)NC(=O)[C@H](CO)NC(=O)[C@@H](NC(=O)[C@H](Cc1ccccc1)NC(=O)[C@@H](NC(=O)CNC(=O)[C@@H](N)CCC(=O)O)[C@@H](C)O)[C@@H](C)CC)C(=O)N[C@@H](C)C(=O)N[C@@H](CCSC)C(=O)N[C@@H](CC(=O)O)C(=O)N[C@@H](CCCCN)C(=O)N[C@H](C(=O)N[C@@H](CCCCNC(=O)CCCCCCCCCCCCCCC(=O)O)C(=O)N[C@@H](CCC(N)=O)C(=O)N[C@@H](CCC(N)=O)C(=O)N[C@@H](CC(=O)O)C(=O)N[C@@H](Cc1ccccc1)C(=O)N[C@H](C(=O)N[C@@H](CC(N)=O)C(=O)N[C@@H](Cc1c[nH]c2ccccc12)C(=O)N[C@@H](CC(C)C)C(=O)N[C@@H](CC(C)C)C(=O)N[C@@H](C)C(=O)N[C@@H](CCC(N)=O)C(=O)N[C@@H](CCCCN)C(=O)NCC(=O)N[C@@H](CCCCN)C(=O)N[C@@H](CCCCN)C(=O)N[C@@H](CC(N)=O)C(=O)N[C@@H](CC(=O)O)C(=O)N[C@@H](Cc1c[nH]c2ccccc12)C(=O)N[C@@H](CCCCN)C(=O)N[C@@H](Cc1c[nH]cn1)C(=O)N[C@@H](CC(N)=O)C(=O)N[C@H](C(=O)N[C@H](C(=O)O)[C@@H](C)O)[C@@H](C)CC)C(C)C)[C@@H](C)CC
B4: AT452 (peptide)
peptide: EGTFISDYSIAMDKIK(C16 diacid)QQDFVNWLLAQKGKKNDWKH-OH
modifications: N-terminus assumed
SMILES: CC[C@H](C)[C@H](NC(=O)[C@H](CO)NC(=O)[C@H](Cc1ccc(O)cc1)NC(=O)[C@H](CC(=O)O)NC(=O)[C@H](CO)NC(=O)[C@@H](NC(=O)[C@H](Cc1ccccc1)NC(=O)[C@@H](NC(=O)CNC(=O)[C@@H](N)CCC(=O)O)[C@@H](C)O)[C@@H](C)CC)C(=O)N[C@@H](C)C(=O)N[C@@H](CCSC)C(=O)N[C@@H](CC(=O)O)C(=O)N[C@@H](CCCCN)C(=O)N[C@H](C(=O)N[C@@H](CCCCNC(=O)CCCCCCCCCCCCCCC(=O)O)C(=O)N[C@@H](CCC(N)=O)C(=O)N[C@@H](CCC(N)=O)C(=O)N[C@@H](CC(=O)O)C(=O)N[C@@H](Cc1ccccc1)C(=O)N[C@H](C(=O)N[C@@H](CC(N)=O)C(=O)N[C@@H](Cc1c[nH]c2ccccc12)C(=O)N[C@@H](CC(C)C)C(=O)N[C@@H](CC(C)C)C(=O)N[C@@H](C)C(=O)N[C@@H](CCC(N)=O)C(=O)N[C@@H](CCCCN)C(=O)NCC(=O)N[C@@H](CCCCN)C(=O)N[C@@H](CCCCN)C(=O)N[C@@H](CC(N)=O)C(=O)N[C@@H](CC(=O)O)C(=O)N[C@@H](Cc1c[nH]c2ccccc12)C(=O)N[C@@H](CCCCN)C(=O)N[C@@H](Cc1c[nH]cn1)C(=O)O)C(C)C)[C@@H](C)CC
B5: AT361 (peptide)
peptide: EGTFISDYSIAMDKIK(C16 diacid)QQDFVNWLLAQKGKKNDW-OH
modifications: N-terminus assumed
SMILES: CC[C@H](C)[C@H](NC(=O)[C@H](CO)NC(=O)[C@H](Cc1ccc(O)cc1)NC(=O)[C@H](CC(=O)O)NC(=O)[C@H](CO)NC(=O)[C@@H](NC(=O)[C@H](Cc1ccccc1)NC(=O)[C@@H](NC(=O)CNC(=O)[C@@H](N)CCC(=O)O)[C@@H](C)O)[C@@H](C)CC)C(=O)N[C@@H](C)C(=O)N[C@@H](CCSC)C(=O)N[C@@H](CC(=O)O)C(=O)N[C@@H](CCCCN)C(=O)N[C@H](C(=O)N[C@@H](CCCCNC(=O)CCCCCCCCCCCCCCC(=O)O)C(=O)N[C@@H](CCC(N)=O)C(=O)N[C@@H](CCC(N)=O)C(=O)N[C@@H](CC(=O)O)C(=O)N[C@@H](Cc1ccccc1)C(=O)N[C@H](C(=O)N[C@@H](CC(N)=O)C(=O)N[C@@H](Cc1c[nH]c2ccccc12)C(=O)N[C@@H](CC(C)C)C(=O)N[C@@H](CC(C)C)C(=O)N[C@@H](C)C(=O)N[C@@H](CCC(N)=O)C(=O)N[C@@H](CCCCN)C(=O)NCC(=O)N[C@@H](CCCCN)C(=O)N[C@@H](CCCCN)C(=O)N[C@@H](CC(N)=O)C(=O)N[C@@H](CC(=O)O)C(=O)N[C@@H](Cc1c[nH]c2ccccc12)C(=O)O)C(C)C)[C@@H](C)CC

Experiments:
[1] = target: T1, human GIP receptor (human, UniProt P48546 22-466); assay: cell-based or functional assay
T1 sequence (looked up): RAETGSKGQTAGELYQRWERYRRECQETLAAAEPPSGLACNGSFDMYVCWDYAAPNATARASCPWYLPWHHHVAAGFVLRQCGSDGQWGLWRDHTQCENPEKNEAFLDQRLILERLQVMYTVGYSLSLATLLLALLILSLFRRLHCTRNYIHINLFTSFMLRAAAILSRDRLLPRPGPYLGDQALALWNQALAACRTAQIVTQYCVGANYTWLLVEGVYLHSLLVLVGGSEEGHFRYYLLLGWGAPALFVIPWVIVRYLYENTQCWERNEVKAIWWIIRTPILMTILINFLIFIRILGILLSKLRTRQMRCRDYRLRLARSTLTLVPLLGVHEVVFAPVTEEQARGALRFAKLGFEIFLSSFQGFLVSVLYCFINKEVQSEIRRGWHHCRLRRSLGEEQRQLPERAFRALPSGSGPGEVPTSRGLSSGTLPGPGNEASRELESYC

[2] = target: T1, human GIP receptor; assay: cell-based or functional assay; remark: listed apart in the source

Row | Binder | cAMP agonism Emax [1] | cAMP antagonism [1] | cAMP antagonism % inhib [1] | cAMP antagonism log [1] | cAMP agonism % Emax [2] | cAMP antagonism [2] | cAMP antagonism % inhib [2] | cAMP antagonism pIC50 [2]
1 | B1 | 9.2 | 8 nM | 75% | -8.1 log M | 0% | 2.33 nM | 99% | 8.6
2 | B2 | 6.1 | 57 nM | 65% | -7.2 log M | 0% | 6.31 nM | 95% | 8.2
3 | EGTFISDYSIAMDKIK(C16 diacid)QQDFVNWLLAQKGKKNDWKHN-OH [AT362] | 7 | 5 nM | 86% | -8.3 log M | 0% | 14.7 nM | 94% | 7.8
4 | B3 | 8.9 | 54 nM | 82% | -7.3 log M | 0% | 6.81 nM | 84% | 8.2
5 | B4 | 7.2 | 5 nM | 75% | -8.3 log M | 0% | 7.59 nM | 97% | 8.1
6 | B5 | 5 | 2 nM | 100% | -8.8 log M | 0% | 3.76 nM | 99% | 8.4
